Measurements: patent US20160220669A1 (Hoffmann-La Roche, published 2016)

How the values were obtained:
[1] = molecular target: human wildtype CSF-1R (full-length) (human, UniProt P07333 20-972); assay: cell-based or functional assay
[2] = molecular target: CSF-1R of cynomolgous monocytes (cynomolgous); assay: cell-based or functional assay

| Binder | % inhibition 10 µg/ml antibody concentration (BeWo cells, CSF-1 induced growth) [1] [%] | % survival (cynomolgous monocytes with huCSF-1, 5 µg/ml antibody) [2] [%] |
| --- | --- | --- |
| Mab 2F11 (antibody, V domains shown) VH: QVQLKESGPGLVAPSQSLSITCTVSGFSLTTYDISWIRQSPGKGLEWLGVIWTDGGTNYNSPFMSRLSIRKDNSKSQVFLKMNRLQTDDTAIYYCVRDQRLYFDVWGAGTTVTVSS VL: NIVMTQSPKSMSMSVGERVTLNCKASEDVNTYVSWYQQQPEQSPKLLIYGASNRYTGVPDRFTGGGSTTDFTLTISSVQAEDLADYFCGQSFSYPTFGTGTKLEIK | 70 | 4 |
| Mab 1G10 (antibody, V domains shown) VH: RVQLKESGPGLVAPSQSLSITCTVSGFSLTSYDISWIRQSPGKGLEWLGVIWSGGGTNYNSPFMSRLRISKDDSRSQVFLKVNRLQTDDTAIYYCVRDLRLYFDVWGAGTTVTVSS VL: KIVMTQSPKSMSVSVGERVSLSCKASEDVGTYVSWYQQKPEQSPKLLIYGSSNRYTGVPDRFTGSGSATDFTLTISSVQAEDLADYSCGQSFTYPTFGTGTKLEIK | 99 | 2 |
| Mab 2E10 (antibody, V domains shown) VH: QVQLKESGPGLVAPSKSLSITCTVSGSSLDSFDISWIRQSPGKGLEWLGVIWTGGGTNYNSGFMSRLRITKDNSKSQVLLKMNSLQSDDTAIYYCVRDPRLYFDVWGAGTTVTVSS VL: NIVMTQSPKSMSMSVGERVTLSCKASEDVVTYVSWYQQKPDQSPKLLIYGASNRYTGVPDRFTGSGSATDFTLTISSVQAEDLADYYCGQTFSYPTFGTGTKLEIK | 102 | 17 |
| Mab 2H7 (antibody, V domains shown) VH: QVQLKESGPGLVAPSKSLSITCTVSGSSLDSFDISWIRQPPGKGLEWLGVIWTGGGTNYNSGFMSRLRISKDNSKSQVFLKMSSLQSDDTAIYYCVRDPRLYFDVWGAGTTVTVSS VL: NIVMTQSPKSMSMSVGERVTLSCKASEDVVTYVSWYQQKPEQSPKLLIYGASNRYTGVPDRFTGSGSATDFTLTISSIQAEDLADYYCGQTFSYPTFGTGTKLEIK | 103 | 8 |
